Test results published in the RNAGym collection of RNA variant scans (doi:10.1073/pnas.2313332121).

B1: TPR t1 (parent)
chain: GACCAAUCUGCCCUCAGAGCUCGAGAACAUCUUCGGAUGCAGAGGAGGCAGGCUUCGGUGGCGCGAUAGCGCCAACGUCCUCAACCUCCAAUGCAUCCCACCACAUGAUGAUGCCUGAAGAGCCUUGGUUUUUUG

Variants of: B1
Assay: polymerase ribozyme fitness, log enrichment relative to wild type (log ratio); higher = more active; in vitro selection for triplet polymerase activity
Summary of the method: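 Fitness is a logarithmic measure of how a genotype enriched relative to the wild type, with replicate averages weighted by inverse variance. The logarithm uses base 2, and enrichment came from Illumina sequencing of input and output libraries. Those libraries were PCR-built, transcribed mutants of each subunit of a heterodimeric triplet polymerase ribozyme, passed through one triplicate in vitro selection round that included frozen incubation at −7 °C, gel excision of extended constructs and streptavidin-bead capture. Genotypes were kept only if they had ≥10 input reads and ≥1 read per output.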

**Q.** Which “polymerase ribozyme fitness (log ratio)” value does the source give for C15G C101U here?
**A.** The value was -2.56.

**Q.** Which “polymerase ribozyme fitness (log ratio)” value does the source give for C15G C101A here?
**A.** Its value is -3.78.

**Q.** With C13U C98A C115U as the variant, how does the “polymerase ribozyme fitness (log ratio)” value read?
**A.** The value was -5.17.

**Q.** Which “polymerase ribozyme fitness (log ratio)” value does the source give for C13U G42U C70U A121C here?
**A.** The value was 0.0681.

**Q.** With C13U G44A A50C G63A C85A as the variant, how does the “polymerase ribozyme fitness (log ratio)” value read?
**A.** The value was -3.07.

**Q.** With U14G G42U G45C C64U C101U C123A G135U as the variant, how does the “polymerase ribozyme fitness (log ratio)” value read?
**A.** Its value is -4.44.

**Q.** Which “polymerase ribozyme fitness (log ratio)” value does the source give for C15G A84U G120U U129G here?
**A.** Its value is -5.84.

**Q.** With C13U C76A as the variant, how does the “polymerase ribozyme fitness (log ratio)” value read?
**A.** The value was -0.633.

**Q.** For C15U C79U A111U A121U, which “polymerase ribozyme fitness (log ratio)” value is on record?
**A.** The value was -3.53.

**Q.** For U14A A50C U125G, which “polymerase ribozyme fitness (log ratio)” value is on record?
**A.** Its value is -3.97.

**Q.** For C15U G44U G71C, which “polymerase ribozyme fitness (log ratio)” value is on record?
**A.** The value was -2.64.

**Q.** For U14A A74G G117U, which “polymerase ribozyme fitness (log ratio)” value is on record?
**A.** The value was -4.7.

**Q.** For C15A A37U, which “polymerase ribozyme fitness (log ratio)” value is on record?
**A.** The value was -2.28.

**Q.** With C15G C115A as the variant, how does the “polymerase ribozyme fitness (log ratio)” value read?
**A.** Its value is -2.88.

**Q.** With C15G C28A G44U G52U G69U as the variant, how does the “polymerase ribozyme fitness (log ratio)” value read?
**A.** The value was -5.21.

**Q.** Which “polymerase ribozyme fitness (log ratio)” value does the source give for C15U C72A C82U here?
**A.** The value was -1.42.

**Q.** Which “polymerase ribozyme fitness (log ratio)” value does the source give for C15U A74G C88A A91C here?
**A.** The value was -2.13.

**Q.** With C15A C88U C123U as the variant, how does the “polymerase ribozyme fitness (log ratio)” value read?
**A.** Its value is -1.37.

**Q.** For U14G C80U C102U C123G, which “polymerase ribozyme fitness (log ratio)” value is on record?
**A.** Its value is -1.69.

**Q.** With C15G C98G G120A C123A C124A as the variant, how does the “polymerase ribozyme fitness (log ratio)” value read?
**A.** Its value is -6.86.

**Q.** For C15A G19A A50C A74G C102A C104A A121U U125G, which “polymerase ribozyme fitness (log ratio)” value is on record?
**A.** The value was -6.51.

**Q.** With C15A C73G G117A G127U as the variant, how does the “polymerase ribozyme fitness (log ratio)” value read?
**A.** The value was -4.62.

**Q.** Which “polymerase ribozyme fitness (log ratio)” value does the source give for C15G G52U U87G here?
**A.** Its value is -3.21.

**Q.** For C13U C72G C85G C123U, which “polymerase ribozyme fitness (log ratio)” value is on record?
**A.** Its value is -0.494.

**Q.** For C13U G63U A90U G117C, which “polymerase ribozyme fitness (log ratio)” value is on record?
**A.** The value was -5.21.

**Q.** Which “polymerase ribozyme fitness (log ratio)” value does the source give for C15G C85U here?
**A.** The value was -3.82.

**Q.** With U14C A75G as the variant, how does the “polymerase ribozyme fitness (log ratio)” value read?
**A.** The value was -1.81.

**Q.** Which “polymerase ribozyme fitness (log ratio)” value does the source give for U14G G69A A90C U112A G128A here?
**A.** The value was -6.5.

**Q.** With C15G G47U A83U A108U C114G U116G G117C as the variant, how does the “polymerase ribozyme fitness (log ratio)” value read?
**A.** The value was -6.68.

**Q.** With C13U G47C C73A C99U as the variant, how does the “polymerase ribozyme fitness (log ratio)” value read?
**A.** The value was -4.72.

**Q.** With C15U C56U as the variant, how does the “polymerase ribozyme fitness (log ratio)” value read?
**A.** The value was -1.21.

**Q.** For C15A G36A C72U U116A G120U, which “polymerase ribozyme fitness (log ratio)” value is on record?
**A.** Its value is -4.34.

**Q.** With U14G C70G U116G U125A as the variant, how does the “polymerase ribozyme fitness (log ratio)” value read?
**A.** The value was -5.32.

**Q.** Which “polymerase ribozyme fitness (log ratio)” value does the source give for U14A A41C here?
**A.** The value was -4.27.

**Q.** Which “polymerase ribozyme fitness (log ratio)” value does the source give for C15A G47U G61U here?
**A.** The value was -3.15.

**Q.** For U14A U54A C56U U130G, which “polymerase ribozyme fitness (log ratio)” value is on record?
**A.** The value was -3.42.

**Q.** Which “polymerase ribozyme fitness (log ratio)” value does the source give for U14C G47C here?
**A.** The value was -2.99.

**Q.** With U14A C49U G52U C76A as the variant, how does the “polymerase ribozyme fitness (log ratio)” value read?
**A.** Its value is -4.51.

**Q.** With C15A C82A as the variant, how does the “polymerase ribozyme fitness (log ratio)” value read?
**A.** Its value is -3.12.

**Q.** With C15U A18G A37G U54A A100U C115A as the variant, how does the “polymerase ribozyme fitness (log ratio)” value read?
**A.** The value was -5.29.

**Q.** For C15U C99U C102A G113U A118G, which “polymerase ribozyme fitness (log ratio)” value is on record?
**A.** Its value is -7.09.

**Q.** Which “polymerase ribozyme fitness (log ratio)” value does the source give for U14C U33C here?
**A.** The value was -5.43.

**Q.** For U14C G45A G122A, which “polymerase ribozyme fitness (log ratio)” value is on record?
**A.** The value was -3.73.

**Q.** Which “polymerase ribozyme fitness (log ratio)” value does the source give for C15G G44C G47A G69U G135U here?
**A.** Its value is -3.36.

**Q.** With C15U C86U C102A as the variant, how does the “polymerase ribozyme fitness (log ratio)” value read?
**A.** The value was -4.01.

**Q.** With C15U G45C G47A C53U U59A A90G C101U as the variant, how does the “polymerase ribozyme fitness (log ratio)” value read?
**A.** The value was -5.35.

**Q.** Which “polymerase ribozyme fitness (log ratio)” value does the source give for C15U G35C G69U here?
**A.** The value was -2.64.

**Q.** With C13U G93A C114G as the variant, how does the “polymerase ribozyme fitness (log ratio)” value read?
**A.** The value was -2.39.

**Q.** For C15G G57A, which “polymerase ribozyme fitness (log ratio)” value is on record?
**A.** The value was -4.5.

**Q.** For U14A C79U G117U, which “polymerase ribozyme fitness (log ratio)” value is on record?
**A.** The value was -5.29.

**Q.** With C13U C70A A84U as the variant, how does the “polymerase ribozyme fitness (log ratio)” value read?
**A.** The value was -1.83.

**Q.** With C13U G42U as the variant, how does the “polymerase ribozyme fitness (log ratio)” value read?
**A.** The value was -1.12.

**Q.** For C15U C79G C98U, which “polymerase ribozyme fitness (log ratio)” value is on record?
**A.** The value was -4.8.

**Q.** For C15U C124G, which “polymerase ribozyme fitness (log ratio)” value is on record?
**A.** Its value is -0.245.

**Q.** With U14A A29G G113A as the variant, how does the “polymerase ribozyme fitness (log ratio)” value read?
**A.** The value was -5.5.

**Q.** Which “polymerase ribozyme fitness (log ratio)” value does the source give for C15U C56G G60U U78G U92A here?
**A.** Its value is -6.42.

**Q.** Which “polymerase ribozyme fitness (log ratio)” value does the source give for U14A G61U U81A C97U here?
**A.** The value was -3.36.

**Q.** For C15G C34A, which “polymerase ribozyme fitness (log ratio)” value is on record?
**A.** The value was -5.11.

**Q.** With C13U G36A C88U as the variant, how does the “polymerase ribozyme fitness (log ratio)” value read?
**A.** The value was -0.556.

**Q.** Which “polymerase ribozyme fitness (log ratio)” value does the source give for U14G G47U C101G G120U here?
**A.** The value was -4.67.

**Q.** With C13U G135U as the variant, how does the “polymerase ribozyme fitness (log ratio)” value read?
**A.** Its value is -0.441.

**Q.** For C15A U32C G71C, which “polymerase ribozyme fitness (log ratio)” value is on record?
**A.** Its value is -2.71.

**Q.** For C13U G117A, which “polymerase ribozyme fitness (log ratio)” value is on record?
**A.** Its value is -1.27.

**Q.** With U14G C22U A29G G61A C124G U129C as the variant, how does the “polymerase ribozyme fitness (log ratio)” value read?
**A.** The value was -4.06.

**Q.** For U14A G36A C56U, which “polymerase ribozyme fitness (log ratio)” value is on record?
**A.** Its value is -3.35.

**Q.** With C13U G93C as the variant, how does the “polymerase ribozyme fitness (log ratio)” value read?
**A.** Its value is -0.682.

**Q.** With C15G A18U as the variant, how does the “polymerase ribozyme fitness (log ratio)” value read?
**A.** Its value is -3.36.

**Q.** For U14G G110A U130A, which “polymerase ribozyme fitness (log ratio)” value is on record?
**A.** Its value is -3.04.

**Q.** With C15A A46C A84C A91U as the variant, how does the “polymerase ribozyme fitness (log ratio)” value read?
**A.** Its value is -4.15.

**Q.** For C13U C124U, which “polymerase ribozyme fitness (log ratio)” value is on record?
**A.** Its value is 1.96.

**Q.** Which “polymerase ribozyme fitness (log ratio)” value does the source give for U14C G42U G44A G61U here?
**A.** The value was -2.82.

**Q.** For U14G C34A G117A, which “polymerase ribozyme fitness (log ratio)” value is on record?
**A.** Its value is -4.56.

**Q.** Which “polymerase ribozyme fitness (log ratio)” value does the source give for C15G U32C C49U U87G C123A here?
**A.** The value was -3.12.

**Q.** With C15G A50U U109A as the variant, how does the “polymerase ribozyme fitness (log ratio)” value read?
**A.** Its value is -6.25.

**Q.** For C15G G61C A119G, which “polymerase ribozyme fitness (log ratio)” value is on record?
**A.** Its value is -0.591.

**Q.** With U14C U78A C80A as the variant, how does the “polymerase ribozyme fitness (log ratio)” value read?
**A.** Its value is -4.98.

**Q.** For C15A G52A G117U, which “polymerase ribozyme fitness (log ratio)” value is on record?
**A.** Its value is 0.0979.

**Q.** Which “polymerase ribozyme fitness (log ratio)” value does the source give for U14A G52A here?
**A.** Its value is -3.3.

**Q.** With C15A G63C C88U as the variant, how does the “polymerase ribozyme fitness (log ratio)” value read?
**A.** Its value is -3.01.

**Q.** Which “polymerase ribozyme fitness (log ratio)” value does the source give for C13U G45U C56G U87A here?
**A.** The value was -3.44.

**Q.** For U14G C20U C22G G23C U33C U38G C62U U112C A118G G127A, which “polymerase ribozyme fitness (log ratio)” value is on record?
**A.** Its value is -6.3.

**Q.** For C15G A83U C115G C123A, which “polymerase ribozyme fitness (log ratio)” value is on record?
**A.** The value was -5.38.

**Q.** Which “polymerase ribozyme fitness (log ratio)” value does the source give for C15U C114A here?
**A.** The value was -3.36.
